Results as given in patent US20190388471A1 (published 2019).
Substitutions are numbered along the chain they refer to.

T1: human CD19 (full length, expressed on cells) (human, UniProt P15391 20-556)
T1 construct: whole, on cells; The functional assays used K562 cells transduced to express CD19; also called hsCD19; hCD19
T1 sequence (looked up): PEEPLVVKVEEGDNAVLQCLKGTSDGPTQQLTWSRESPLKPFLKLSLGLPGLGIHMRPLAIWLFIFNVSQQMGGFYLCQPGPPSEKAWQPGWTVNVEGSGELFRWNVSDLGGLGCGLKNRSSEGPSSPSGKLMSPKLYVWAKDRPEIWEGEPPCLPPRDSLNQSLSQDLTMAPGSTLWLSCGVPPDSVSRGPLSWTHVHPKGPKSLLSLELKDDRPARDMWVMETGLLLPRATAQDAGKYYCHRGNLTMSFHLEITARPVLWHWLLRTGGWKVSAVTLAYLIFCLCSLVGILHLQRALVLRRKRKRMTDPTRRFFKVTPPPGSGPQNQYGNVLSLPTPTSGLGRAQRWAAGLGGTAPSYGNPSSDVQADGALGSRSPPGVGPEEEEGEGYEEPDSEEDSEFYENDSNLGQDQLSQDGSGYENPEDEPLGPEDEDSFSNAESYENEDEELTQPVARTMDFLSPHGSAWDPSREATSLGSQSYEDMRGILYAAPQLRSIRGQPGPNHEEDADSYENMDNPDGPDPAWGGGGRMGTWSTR

B1: 100796 CAR7 Soluble scFv (scFv)
scFv: QVQLQESGPGLVKPSETLSLTCTVSGVSLPDYGVSWIRQPPGKGLEWIGVIWGSETTYYSSSLKSRVTISKDNSKNQVSLKLSSVTAADTAVYYCAKHYYYGGSYAMDYWGQGTLVTVSSGGGGSGGGGSGGGGSGGGGSEIVMTQSPATLSLSPGERATLSCRASQDISKYLNWYQQKPGQAPRLLIYHTSRLHSGIPARFSGSGSGTDYTLTISSLQPEDFAVYFCQQGNTLPYTFGQGTKLEIKHHHHHHHH
notes: also called CAR7 scFv; humanized scFv
B2: 100796 CAR10 Soluble scFv (scFv)
scFv: B1 scFv with S60N
notes: The clone number 100796 is printed for both CAR7 and CAR10; also called CAR10 scFv; humanized scFv
B3: 100798 CAR8 Soluble scFv (scFv)
scFv: B1 scFv with S60Q
notes: also called CAR8 scFv; humanized scFv
B4: 103104 CAR 3 Soluble scFv (scFv)
scFv: QVQLQESGPGLVKPSETLSLTCTVSGVSLPDYGVSWIRQPPGKGLEWIGVIWGSETTYYSSSLKSRVTISKDNSKNQVSLKLSSVTAADTAVYYCAKHYYYGGSYAMDYWGQGTLVTVSSGGGGSGGGGSGGGGSEIVMTQSPATLSLSPGERATLSCRASQDISKYLNWYQQKPGQAPRLLIYHTSRLHSGIPARFSGSGSGTDYTLTISSLQPEDFAVYFCQQGNTLPYTFGQGTKLEIKHHHHHHHH
notes: also called CAR3 scFv; humanized scFv
B5: 103106 CAR4 Soluble scFv (scFv)
scFv: B4 scFv with S60Q
notes: also called CAR4 scFv; humanized scFv
B6: 103104 CAR12 Soluble scFv (scFv)
scFv: B4 scFv with S60N
notes: The clone number 103104 is printed for both CAR3 and CAR12; also called CAR12 scFv; humanized scFv
B7: 99789 CAR5 Soluble scFv (scFv)
scFv: EIVMTQSPATLSLSPGERATLSCRASQDISKYLNWYQQKPGQAPRLLIYHTSRLHSGIPARFSGSGSGTDYTLTISSLQPEDFAVYFCQQGNTLPYTFGQGTKLEIKGGGGSGGGGSGGGGSGGGGSQVQLQESGPGLVKPSETLSLTCTVSGVSLPDYGVSWIRQPPGKGLEWIGVIWGSETTYYSSSLKSRVTISKDNSKNQVSLKLSSVTAADTAVYYCAKHYYYGGSYAMDYWGQGTLVTVSSHHHHHHHH
notes: also called CAR5 scFv; humanized scFv
B8: 99789 CAR9 Soluble scFv (scFv)
scFv: B7 scFv with S187N
notes: The clone number 99789 is printed for both CAR5 and CAR9; also called CAR9 scFv; humanized scFv
B9: 99790 CAR6 Soluble scFv (scFv)
scFv: B7 scFv with S187Q
notes: also called CAR6 scFv; humanized scFv
B10: 103101 CAR1 Soluble scFv (scFv)
scFv: EIVMTQSPATLSLSPGERATLSCRASQDISKYLNWYQQKPGQAPRLLIYHTSRLHSGIPARFSGSGSGTDYTLTISSLQPEDFAVYFCQQGNTLPYTFGQGTKLEIKGGGGSGGGGSGGGGSQVQLQESGPGLVKPSETLSLTCTVSGVSLPDYGVSWIRQPPGKGLEWIGVIWGSETTYYSSSLKSRVTISKDNSKNQVSLKLSSVTAADTAVYYCAKHYYYGGSYAMDYWGQGTLVTVSSHHHHHHHH
notes: It is built here as scFv domain plus His tag; also called CAR1 scFv; humanized scFv
B11: 103102 CAR2 Soluble scFv (scFv)
scFv: B10 scFv with S182Q
notes: also called CAR2 scFv; humanized scFv
B12: 103101 CAR11 Soluble scFv (scFv)
scFv: B10 scFv with S182N
notes: The clone number 103101 is printed for both CAR1 and CAR11; also called CAR11 scFv; 103101-WT (S/N)

Biological target: T1, human CD19 (full length, expressed on …)
Test: flow cytometry; His-tagged soluble scFv on mouse cell line 300 expressing hCD19
Protocol: Mouse cell line 300.CD19 were grown in RPMI 1640 with 0.5 mg/ml Zeocin. Around 5e5 cells/per well were transferred to the BD Falcon 96 well plate. The cells were spin down at 900 rpm (Sorval Legend XT centrifuge) for 3 minutes. The supernatant were removed. Anti-CD19 scFv protein samples were diluted in DPBS with 5% FBS. The samples were added into the wells, mixed well with the cells and incubated for 1 hour. The cells were washed twice in the DPBS with 5% FBS. The cells were incubated with antipoly His PE (R&D) for 1 hour, washed twice before FACS analysis (LSRII from BD Biosciences).

Binding result, binds:
B1
B2
B3
B4
B5
B6
B7
B8
B9
B10
B11
B12
